Data on 167 variants can be found in the RNAGym collection of RNA variant scans (doi:10.7554/elife.80360).

Sequences and labels used below:
B1: Hairpin Ribozyme (parent)
chain: GUCCUCUUUCACGUGCGCGUGAAAGAGAGAAGUGAACCAGAGAAACACACGUUGUGGUAUAUUACCUGGUA

The series covers variants of B1. Description: self-cleavage, relative activity (ratio to wild type); higher = more cleavage; co-transcriptional.
On to A39U G51U, for which the self-cleavage was found to be 0.632.

For the variant A59G U63G, the self-cleavage was determined as 0.0571. On to G1C A11C, for which the self-cleavage came out at 0.0386. Regarding G25A A49G, the self-cleavage was 0.275. For U58C U62G, the self-cleavage came out at 0.242. For the variant G29C U70C, the self-cleavage was found to be 0.133. C37G G69C: the self-cleavage amounted to 0.984. To A45G A61U belongs 0.0962; to C3G U60C, 0.314. With A30C A71U, the self-cleavage stood at 0.104. With G51A U62C, the self-cleavage was found to be 0.364.

Turning to G1C G17U, the self-cleavage was determined as 0.204. On to G1C U53G, for which the self-cleavage is 0.046. For the variant C50U G57C, the self-cleavage worked out at 0.16. Take U9C A43G: the self-cleavage was determined as 0.0922. For U5G C18U, the self-cleavage came out at 0.243. With U20C C37A, the self-cleavage was determined as 0.426. As to U7C A31U, the self-cleavage is 0.112. As for U9G C10G, the self-cleavage worked out at 0.375.

On to U52C G57A, for which the self-cleavage amounted to 0.223.

For the variant G40C U58A, the self-cleavage was found to be 0.16.

Consider C10A G57U, for which the self-cleavage is 0.221.

With G21U A49C, the self-cleavage was determined as 0.219.

For G34U G68C, the self-cleavage was determined as 0.686. To G34U G68U belongs 0.95; to G21C A47U, 0.181. With C16U G54U, the self-cleavage was 0.82. As for U7C A24U, the self-cleavage came out at 0.707.

On to G69C, for which the self-cleavage was found to be 0.289.

Consider A36C A49C, for which the self-cleavage stood at 0.144. Take U14A A44U: the self-cleavage came out at 0.118. Regarding C3G C48G, the self-cleavage worked out at 0.196. Turning to A22C A61G, the self-cleavage was found to be 0.123.

On to G29U U53A, for which the self-cleavage amounted to 0.103.

Take U7G G42A: the self-cleavage amounted to 0.218. As to C48U A49U, the self-cleavage is 0.208. To A22C A36C belongs 0.559; to C6U G17A, 0.917. Consider C48G G51C, for which the self-cleavage was determined as 0.0824. For G15C C50G the value was 0.184. In the case of U8A G69C, the self-cleavage was 0.191. Take A24G G57A: the self-cleavage is 0.228. For G32U U52C the value was 0.144. For A23C C38U the value was 0.398; for A39U U62G, 0.088; for C4U A31G, 0.0741. Turning to U14C G51C, the self-cleavage worked out at 0.586.

In the case of G34U U58C, the self-cleavage came to 1.53. With G51A A71U, the self-cleavage turned out to be 0.718.

As to A44C G51U, the self-cleavage was found to be 0.114. On to U55A A64C, for which the self-cleavage amounted to 0.13. Regarding G1C C66U, the self-cleavage amounted to 0.12. Turning to G1U G68C, the self-cleavage was determined as 0.0827. Take G1U G68U: the self-cleavage is 0.051.

Regarding U5A U70G, the self-cleavage amounted to 0.171. For the variant C46G U60C, the self-cleavage was 0.0722. To C50U G51A belongs 0.322. A43U G68U: the self-cleavage was 0.223. To G15U A35U belongs 0.842; to G40A U70A, 0.158. For the variant C3U C66G, the self-cleavage came to 0.0901.

For U2A A59C, the self-cleavage came out at 0.0974.

With C18U C65A, the self-cleavage was found to be 0.88.

Consider G51U A59C, for which the self-cleavage was 0.103. In the case of G34C A39U, the self-cleavage stood at 1.02. For the variant G32A G69U, the self-cleavage worked out at 0.161.

U9G A11C: the self-cleavage was determined as 0.416.

With C16U C46U, the self-cleavage was 0.143. Regarding A22G G68A, the self-cleavage turned out to be 0.307.

With C16U G25C, the self-cleavage turned out to be 0.63. As to C6G A49C, the self-cleavage amounted to 0.0827. Turning to A28C A61G, the self-cleavage came out at 0.1.

Consider A45U C65A, for which the self-cleavage is 0.131.

On to C65G C66G, for which the self-cleavage was 0.178. To G25A G32U belongs 0.144. A41G U63C: the self-cleavage amounted to 0.0946. Consider A31U U52A, for which the self-cleavage came to 0.048.

On to U5C A23U, for which the self-cleavage turned out to be 0.461. In the case of G29C A45C, the self-cleavage was determined as 0.207. For the variant A11U G32C, the self-cleavage came to 0.144. For the variant G27U A47U, the self-cleavage was determined as 0.192. Consider G54C C65A, for which the self-cleavage worked out at 0.194.

Regarding A23C A45G, the self-cleavage was determined as 0.173.

With U5A A41G, the self-cleavage turned out to be 0.162. Regarding U2A U62C, the self-cleavage is 0.0796.

U20G G27U: the self-cleavage turned out to be 0.154. In the case of C10A G69U, the self-cleavage was 0.14. G42A U52G: the self-cleavage stood at 0.0884. On to U8A C12U, for which the self-cleavage is 0.747. Consider A41C A49C, for which the self-cleavage was 0.217.

Take A23G G25U: the self-cleavage is 0.357. Take G19U U60A: the self-cleavage amounted to 0.804.

Consider A23U U33A, for which the self-cleavage worked out at 0.153. Consider C6G G13A, for which the self-cleavage amounted to 0.45. For the variant C16U A35C, the self-cleavage was 1.39.

For U20G A26G, the self-cleavage turned out to be 0.788. Turning to G15A A39U, the self-cleavage was 0.351. Turning to C10U A22U, the self-cleavage amounted to 0.373. Take A22G A26U: the self-cleavage stood at 0.528. As for U33C C50U, the self-cleavage amounted to 0.0772.

C46G G51A: the self-cleavage is 0.154. As for C50U U53A, the self-cleavage was 0.335. For C16U C37G, the self-cleavage is 0.182. For the variant G1A U55C, the self-cleavage turned out to be 0.243. In the case of U7C G29C, the self-cleavage worked out at 0.131.

In the case of A41C C48G, the self-cleavage was determined as 0.199. For A43C U58C, the self-cleavage is 0.148.

As to G1U A35U, the self-cleavage turned out to be 0.126. Take C38G G40U: the self-cleavage is 0.169. For A23C A39G, the self-cleavage is 0.248. To C10G A24G belongs 0.63.

G21C A44C: the self-cleavage was determined as 0.0985.

As to A30G G68A, the self-cleavage came out at 0.0362.

Consider U9C G19U, for which the self-cleavage was 0.617. With C16U C18U, the self-cleavage worked out at 0.979.

A31C G69C: the self-cleavage is 0.0986. As to G13A U14A, the self-cleavage was 0.99. Turning to C6G U70C, the self-cleavage turned out to be 0.497. For A23U G56A the value was 0.237; for C18A U53C, 1.01; for C12U A61C, 0.24.

Take A44G C66A: the self-cleavage was 0.022.

On to G15C A59G, for which the self-cleavage is 0.104.

On to C3U U52A, for which the self-cleavage was 0.522.

Regarding U9C G68C, the self-cleavage stood at 0.108. As to C18G A24U, the self-cleavage stood at 0.729. Regarding G17A A61C, the self-cleavage turned out to be 0.199. For U9C U53A, the self-cleavage was 1.19. Turning to U20G A39G, the self-cleavage is 0.27. In the case of A35G A43G, the self-cleavage is 0.082. Regarding A28C G56U, the self-cleavage turned out to be 0.0871. On to A36C G40U, for which the self-cleavage is 0.122. To C16U G27A belongs 0.536. U20C G25A: the self-cleavage is 0.288. In the case of C16G A44U, the self-cleavage stood at 0.16. To U7A U60G belongs 0.496; to G56U U63G, 0.0375; to G34A G56C, 0.13. Consider U67A G68C, for which the self-cleavage turned out to be 0.157. Consider A41G U67C, for which the self-cleavage was 0.483. Turning to U20A A49C, the self-cleavage turned out to be 0.131. For the variant U2A C16A, the self-cleavage stood at 0.221. To U60C U62G belongs 0.155; to G27A G54U, 0.213; to A11G U20C, 0.857. For U7G A26G the value was 0.821. Turning to G51U G69U, the self-cleavage was 0.287. On to A49U U53A, for which the self-cleavage was determined as 0.139. For the variant C38G A47U, the self-cleavage was determined as 0.171. A26G G40U: the self-cleavage amounted to 0.128.

Take U7C C38G: the self-cleavage came to 0.202.

Regarding C12A G69U, the self-cleavage came out at 0.251. Turning to C38U C66A, the self-cleavage was found to be 0.167. On to C6A U7G, for which the self-cleavage was 0.447. Consider G19C U58C, for which the self-cleavage is 0.815. On to G1U G15U, for which the self-cleavage was 0.102. On to U7C U70G, for which the self-cleavage was 0.877. For the variant G27U C66A, the self-cleavage worked out at 0.169. For A31C G68C, the self-cleavage was 0.135.

U14A A35C: the self-cleavage came to 0.998. Regarding A26U A31G, the self-cleavage came to 0.389. As to A24G G29A, the self-cleavage came out at 0.11. As for C18A A45C, the self-cleavage was 0.173.

Consider G27U G69A, for which the self-cleavage amounted to 0.0822. As for G17U U70G, the self-cleavage came out at 0.739. In the case of C6G U62A, the self-cleavage was determined as 0.0667. As for C18U A35G, the self-cleavage is 0.986.
